Data: article PMC9637641, “Regulation of factor V by the anticoagulant protease activated protein C: Influence of the B-domain and TFPIα” (The Journal of Biological Chemistry, 2022)

What was measured:
OG488-TFPIα-BR [1] = molecular target: T1, OG488-TFPIα-BR (fluorescently labeled with OG488 (Oregon Green 488 maleimide)); assay: fluorescence polarisation; steady-state fluorescence anisotropy; FV species or APCi titrated (0–100 nM) into 25 nM OG488-TFPIα-BR and 50 μM PCPS vesicles in HBS/Ca2+/PEG, pH 7.4 (20 mM Hepes, 150 mM NaCl, 5 mM CaCl2, 0.1% PEG-8000), 25 °C; fit to a model for tight binding; details: both partners purified
T1 construct: The labelled form stood in the anisotropy titrations; also called TFPIα-BR fragment; BR fragment; source: expressed in SUMO-pro bacteria (Life-Sensors), purified, fluorescently labeled with OG488

OG488-TFPIα-BR [2] = molecular target: T1, OG488-TFPIα-BR; assay: cell-based or functional assay

T1 sequence (P10646 268-293): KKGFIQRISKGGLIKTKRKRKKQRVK

B1: FV-short (natural protein)
chain: AQLRQFYVAAQGISWSYRPEPTNSSLNLSVTSFKKIVYREYEPYFKKEKPQSTISGLLGPTLYAEVGDIIKVHFKNKADKPLSIHPQGIRYSKLSEGASYLDHTFPAEKMDDAVAPGREYTYEWSISEDSGPTHDDPPCLTHIYYSHENLIEDFNSGLIGPLLICKKGTLTEGGTQKTFDKQIVLLFAVFDESKSWSQSSSLMYTVNGYVNGTMPDITVCAHDHISWHLLGMSSGPELFSIHFNGQVLEQNHHKVSAITLVSATSTTANMTVGPEGKWIISSLTPKHLQAGMQAYIDIKNCPKKTRNLKKITREQRRHMKRWEYFIAAEEVIWDYAPVIPANMDKKYRSQHLDNFSNQIGKHYKKVMYTQYEDESFTKHTVNPNMKEDGILGPIIRAQVRDTLKIVFKNMASRPYSIYPHGVTFSPYEDEVNSSFTSGRNNTMIRAVQPGETYTYKWNILEFDEPTENDAQCLTRPYYSDVDIMRDIASGLIGLLLICKSRSLDRRGIQRAADIEQQAVFAVFDENKSWYLEDNINKFCENPDEVKRDDPKFYESNIMSTINGYVPESITTLGFCFDDTVQWHFCSVGTQNEILTIHFTGHSFIYGKRHEDTLTLFPMRGESVTVTMDNVGTWMLTSMNSSPRSKKLRLKFRDVKCIPDDDEDSYEIFEPPESTVMATRKMHDRLEPEDEESDADYDYQNRLAAALGIRSFRNSSLNQEEEEFNLTALALENGTEFVSSNTDIIVGSNYSSPSNIDLGQMPSPSSPTLNDTFLSKEFNPLVIVGLSKDGTDYIEIIPKEEVQSSEDDYAEIDYVPYDDPYKTDVRTNINSSRDPDNIAAWYLRSNNGNRRNYYIAAEEISWDYSEFVQRETDIEDSDDIPEDTTYKKVVFRKYLDSTFTKRDPRGEYEEHLGILGPIIRAEVDDVIQVRFKNLASRPYSLHAHGLSYEKSSEGKTYEDDSPEWFKEDNAVQPNSSYTYVWHATERSGPESPGSACRAWAYYSAVNPEKDIHSGLIGPLLICQKGILHKDSNMPMDMREFVLLFMTFDEKKSWYYEKKSRSSWRLTSSEMKKSHEFHAINGMIYSLPGLKMYEQEWVRLHLLNIGGSQDIHVVHFHGQTLLENGNKQHQLGVWPLLPGSFKTLEMKASKPGWWLLNTEVGENQRAGMQTPFLIMDRDCRMPMGLSTGIISDSQIKASEFLGYWEPRLARLNNGGSYNAWSVEKLAAEFASKPWIQVDMQKEVIITGIQTQGAKHYLKSCYTTEFYVAYSSNQINWQIFKGNSTRNVMYFNGNSDASTIKENQFDPPIVARYIRISPTRAYNRPTLRLELQGCEVNGCSTPLGMENGKIENKQITASSFKKSWWGDYWEPFRARLNAQGRVNAWQAKANNNKQWLEIDLLKIKKITAIITQGCKSLSSEMYVKSYTIHYSEQGVEWKPYRLKSSMVDKIFEGNTNTKGHVKNFFNPPIISRFIRVIPKTWNQSIALRLELFGCDIY
For B1, the Kd (OG488-TFPIα-BR [1]) was 1.56 nM, the “stoichiometry N” value (OG488-TFPIα-BR [1]) was 1.18 mol/mol and the “Reduced fold change of inactivation by APC, +TFPIα-BR (kobs no BR divided by kobs +BR; % peak thrombin in TGA; 20 nM FV species, 250 nM BR fragment, 1 nM APC)” value (OG488-TFPIα-BR [2]) was 14.2 fold.
